# Experimental data taken from patent US8486893B2, “Treatment of conditions involving demyelination” (Biogen Idec MA Inc., priority 2004, dated 2013).
# Legend:
# A2B5+ oligodendrocytes = assay: Differentiation of A2B5+ oligodendrocytes treated with Sp35-Fc (O4 staining); type: cell-based, rat; conditions: increasing concentrations, versus control-Fc, FIG. 8
# Procedure: Enriched populations of oligodendrocytes were grown from female Long Evans P2 rats as described by Conn, Meth. Neurosci. 2:1-4 (Academic Press; 1990) with modifications as follows. Briefly, the forebrain was dissected and placed in Hank's buffered salt solution (HBSS; Invitrogen). The tissue was cut into 1-mm fragments and was incubated at 37° C. for 15 min in 0.01% trypsin and 10 μg/ml DNase. Dissociated cells were plated on poly-L-lysine-coated T75 tissue culture flasks and were grown at 37° C. for 10 d in DMEM medium with 20% fetal calf serum (Invitrogen). Oligodendrocyte precursors (A2B5+) were collected by shaking the flask overnight at 200 rpm at 37° C., resulting in a 95% pure population. […] These differentiation states are readily apparent from changes in morphology: A2B5^+ cells are bipolar in shape, O4^+ premyelinating oligodendrocytes have longer and more branched processes and MBP^+ mature oligodendrocytes contain myelin sheet structures between processes.
# A2B5^+ oligodendrocytes, prepared as described in Example 1, were treated with increasing concentrations of Sp35-Fc or control-Fc for 3 days (Sp35-Fc was prepared as described in Example 2). […] After 48 h (72 h for RNAi), cultures were stained with antibody to O4, and the number of total O4+ and mature O4+ oligodendrocytes was quantified. Samples were analyzed in duplicate. […]
# mature oligodendrocytes = assay: Survival and MBP expression of mature oligodendrocyte cultures treated with Sp35-Fc; type: cell-based, rat; conditions: 10 μg/ml for 5 days
# Procedure: Mature oligodendrocytes have a half-life in vitro of about 48 to 72 hours, with cells typically undergoing apoptosis after 72 hours. […] MBP expression was monitored as a marker for mature ologodendrocytes.
# spinal cord injury rats = assay: Spinal cord injury (dorsal hemisection T6/T7), intrathecal mini-osmotic pump; type: in vivo, rat
# Procedure: Spinal cord injury was induced in adult female Long Evans rats (190-210 g; Charles River). A dorsal hemisection was performed at T6/T7, completely interrupting the main dorsomedial and the minor dorsolateral corticospinal tract (CST) components. The cord was sterotaxically transected at a depth of 1.8 mm from the surface using a microscalpel. […] Postoperative care comprised analgesia (Buprenorphine/Buprenex, Reckitt Benckiset Healthcare Ltd., 0.05 mg/kg subcutaneously) every 8-12 hours for 3 days and antibiotic treatment (ampicillin, Bristol Myers Squibb, 100 mg/kg subcutaneously twice daily) for 7 days after surgery. Bladders were expressed manually twice a day for the duration of the study (4 weeks) or until return of function. On completion of the study, rats were anesthetized and trans-cardially perfused with heparinized saline followed by 4% paraformaldehyde (PFA). The spinal cords were removed, embedded in paraffin, and 10 μm sections were cut from for histological analysis.
# To quantify apoptotic cell death after SCI, animals were euthanized 3 or 7 days after SCI and stained using anti-activated-Caspase-3 antibody (Cell Signaling Technologies) and TUNEL staining (Promega). The sections were also stained with anti-NeuN antibody (Chemicon) and anti-CC1 antibody (Calbiochem) to identify neurons and oligodendrocytes, respectively.
# [1] = tested on: differentiated PC12 cells; assay: Apoptotic cell death in differentiated PC12 cells after NGF withdrawal (cell death ELISA / TUNEL); type: cell-based
# Procedure: PC12 cells (Neuroscreen) were differentiated in RPMI-1640 medium supplemented with 5% fetal bovine serum, 10% horse serum, 2 mM glutamine, 100 U/ml penicillin and […] streptomycin containing 200 ng/ml NGF for 7 days. For experiments, the culture media was replaced with NGF-free culture media containing Sp35-Fc, human IgG as a negative control (0.1-10 μM), or zVAD as a positive control (0.1 μM). 18 hours after NGF withdrawal, activated Caspase-3 was quantified using the Caspase 3/7 Glo kit (Promega) according to the manufacturer's instructions. 42 hours after NGF withdrawal, apoptotic cell death was quantified using a cell death detection ELISA kit (Roche) according to the manufacturer's instructions.
molecule,measurement,setting,value
"Sp35-Fc: extra-cellular portion of human Sp35 (residues 1-532) fused to the hinge and Fc region of human IgG1 (protein, left off: a dimerising Fc or GST, extra-cellular portion of human Sp35 (residues 1-532) fused to the hinge and Fc region of human IgG1) TGCPPRCECSAQDRAVLCHRKRFVAVPEGIPTETRLLDLGKNRIKTLNQDEFASFPHLEELELNENIVSAVEPGAFNNLFNLRTLGLRSNRLKLIPLGVFTGLSNLTKLDISENKIVILLDYMFQDLYNLKSLEVGDNDLVYISHRAFSGLNSLEQLTLEKCNLTSIPTEALSHLHGLIVLRLRHLNINAIRDYSFKRLYRLKVLEISHWPYLDTMTPNCLYGLNLTSLSITHCNLTAVPYLAVRHLVYLRFLNLSYNPISTIEGSMLHELLRLQEIQLVGGQLAVVEPYAFRGLNYLRVLNVSGNQLTTLEESVFHSVGNLETLILDSNPLACDCRLLWVFRRRWRLNFNRQQPTCATPEFVQGKEFKDFPDVLLPNYFTCRRARIRDRKAQQVFVDEGHTVQFVCRADGDPPPAILWLSPRKHLVSAKSNGRLTVFPDGTLEVRYAQVQDNGTYLCIAANAGGNDSMPAHLHVRSYSPDWPHQPNKTFAFISNQPGE",differentiation of A2B5+ cells into O4+ cells,A2B5+ oligodendrocytes,promoted differentiation of A2B5^+ cells into O4^+ cells in a concentration dependent manner
same,differentiation of A2B5+ cells into O4+ cells,A2B5+ oligodendrocytes; listed as LINGO-1-Fc,Dose-dependent differentiation
same,increase in MBP protein expression (cell staining and Western blot),mature oligodendrocytes; compared to control-Fc treated cells,approximately 3 fold
same,survival rate for mature oligodendrocytes (cell viability staining),mature oligodendrocytes; versus control-Fc,significantly increased survival rate
same,number of activated-Caspase-3-positive neurons and oligodendrocytes versus controls,"spinal cord injury rats; 3 days after SCI, 0.25 μl/h of 25 μM intrathecal",significantly smaller
same,"neuron and oligodendrocyte survival around the lesion site (anti-βIII-tubulin, anti-O4)",spinal cord injury rats; four weeks after SCI,more neurons and oligodendrocytes survived
same,cells undergoing apoptosis (TUNEL assay),"[1]; 18 hours after NGF withdrawal, FIG. 13 legend",fewer cells undergoing apoptosis
same,cell death (TUNEL ELISA),"[1]; 42 hours after withdrawal of NGF, FIG. 13",significantly reduced cell death
